The chains are these.
B1: Methanocaldococcus jannaschii fumarate hydratase α-subunit (enzyme)
chain: KISDVVVELFREAAIYLPEDVKNALEEAYKKESSEISKNTLKAIIENNKIAEETQVPLCQDTGVPIVFLKIGKNINSSEIMKIIEEIKEGVKKATEEVPLRPNVVHPLTRENFKTNVGLNSPFINIEFDESLDREIEIIAFPKGAGSENMSALKMLKPSDGIEGIKNFVLETIANAGGKPCPPIVVGIGIGGTADVALKLAKKALLRKIGERHRDKEIANLEKELLEKINSLGIGAMGLGGDITALDVFIEIAGCHTASLPVGICIQCWADRRAIKRIKLDAKL
B2: Selenomethionine incorporated Methanocaldococcus jannaschii fumarate hydratase α-subunit (of Se-MjFHαβ) (enzyme)
chain: B1 chain
modifications: selenomethionine incorporated (eleven selenium atoms per functional dimer)
B3: Methanocaldococcus jannaschii fumarate hydratase β-subunit (enzyme)
chain: MEYTFNKLTKKDVKKLKVGDIVYLNGKIYTARDEAHLKIIEMLKSNEKLPFDLNESIIYHAGPIMKKVNDSWVCVSIGPTTSARMNDVEEEFIKLTNISAIVGKGGMKKELLKTFEDYGVVYLAAPGGCAALLANSVKRVDNVYFLDELGMPEAVWELEVNNFGPLIVAMDSHGNSIYEEVNKKVYEKLNELIGL

The series “SEC” deals with the molecule itself. Kind of series: SEC. (In general: SEC sorts molecules by how far they enter the pores of the column.)
The series “crystal structure” concerns the molecule itself. The experiment in a line: crystal structure.
For series [1], the target named is B1. The experiment in a line: ITC. (In general: Isothermal titration calorimetry measures the heat released or taken up as one component is titrated into another.)

B1: the stoichiometry N (commonly the number of molecules, sites or subunits per partner or assembly) in “SEC” was found to be 2.

Turning to B2, the binding result in the series “crystal structure” is on record as “binds”.

Consider B3, for which binding in series [1] was put at a Kd of 595 ± 19 nM.

For the origin of these results see publication doi:10.1101/2022.09.03.506457 (bioRxiv, 2022).
